We go through one substance from patent publication US20110020218A1.

The target of the assay is constitutively active mutant (CAM) Asn119Ser CXCR4 receptor (human) (UniProt P61073). Put plainly: cell-based or functional assay.
Sequence of constitutively active mutant (CAM) Asn119Ser CXCR4 receptor (human) (P61073 whole entry N119S): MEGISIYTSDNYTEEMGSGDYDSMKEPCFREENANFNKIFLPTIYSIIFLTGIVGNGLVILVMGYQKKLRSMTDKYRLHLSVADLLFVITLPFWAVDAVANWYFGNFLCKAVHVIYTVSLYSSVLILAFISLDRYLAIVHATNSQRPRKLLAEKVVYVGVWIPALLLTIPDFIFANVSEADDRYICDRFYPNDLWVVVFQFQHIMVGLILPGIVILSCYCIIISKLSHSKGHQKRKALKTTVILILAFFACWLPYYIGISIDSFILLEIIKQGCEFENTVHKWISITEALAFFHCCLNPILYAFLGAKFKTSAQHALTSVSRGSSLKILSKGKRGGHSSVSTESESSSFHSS

Take T140 (peptide): the inhibition of SDF-1-stimulated [35S]GTPγS binding is -159% and the inhibition of basal [35S]GTPγS binding was -17%.
